Test results taken from patent US20190153065A1 (published 2019).
Each block holds one binder with its values, some of them ahead of it.

Assays:
[1] = target: PD-L1 mutant Y123R (mouse PD-L1-mCherry fusion) (mouse, UniProt Q9EP73 19-290); assay: FACS titration; avid
[2] = target: PD-L1 mutant D122A (mouse PD-L1-mCherry fusion) (mouse, UniProt Q9EP73 19-290); assay: FACS titration; avid
[3] = target: PD-L1 mutant K124A (mouse PD-L1-mCherry fusion) (mouse, UniProt Q9EP73 19-290); assay: FACS titration; avid
Chain of PD-L1 mutant K124A (mouse PD-L1-mCherry fusion) (Q9EP73 19-290 K124A): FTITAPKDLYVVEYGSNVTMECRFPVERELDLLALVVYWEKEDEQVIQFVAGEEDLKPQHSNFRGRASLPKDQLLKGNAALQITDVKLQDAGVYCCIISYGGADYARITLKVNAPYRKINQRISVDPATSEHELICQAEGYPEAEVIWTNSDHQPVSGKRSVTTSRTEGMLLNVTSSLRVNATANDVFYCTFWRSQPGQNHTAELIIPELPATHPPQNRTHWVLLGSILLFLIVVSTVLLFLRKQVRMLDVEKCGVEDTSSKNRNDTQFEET

[4] = target: T1, wild-type mouse PD-L1 mCherry (full-length mouse PD-L1 with C-terminal mCherry, on HEK 293 cells) (mouse, UniProt Q9EP73 19-290); assay: FACS titration; avid
T1 sequence (Q9EP73 19-290): as the sequence (Q9EP73 19-290 K124A) above, with A106K counted along it

[5] = target: PD-L1 mutant R125A (mouse PD-L1-mCherry fusion) (mouse, UniProt Q9EP73 19-290); assay: FACS titration; avid
Chain of PD-L1 mutant R125A (mouse PD-L1-mCherry fusion) (Q9EP73 19-290 R125A): as the sequence (Q9EP73 19-290 K124A) above, with A106K, R107A counted along it

[6] = target: D28R; assay: FACS titration; avid
[7] = target: PD-L1 mutant G119D (mouse PD-L1-mCherry fusion) (mouse, UniProt Q9EP73 19-290); assay: FACS titration; avid
Chain of PD-L1 mutant G119D (mouse PD-L1-mCherry fusion) (Q9EP73 19-290 G119D): as the sequence (Q9EP73 19-290 K124A) above, with G101D, A106K counted along it

[8] = target: PD-L1 mutant G120D (mouse PD-L1-mCherry fusion) (mouse, UniProt Q9EP73 19-290); assay: FACS titration; avid
Chain of PD-L1 mutant G120D (mouse PD-L1-mCherry fusion) (Q9EP73 19-290 G120D): as the sequence (Q9EP73 19-290 K124A) above, with G102D, A106K counted along it

[9] = target: PD-L1 mutant D49R (mouse PD-L1-mCherry fusion) (mouse, UniProt Q9EP73 19-290); assay: FACS titration; avid
Chain of PD-L1 mutant D49R (mouse PD-L1-mCherry fusion) (Q9EP73 19-290 D49R): as the sequence (Q9EP73 19-290 K124A) above, with D31R, A106K counted along it

[10] = target: T1, wild-type mouse PD-L1 mCherry …; assay: FACS
[11] = target: PD-L1 mutant Y56A (mouse PD-L1-mCherry fusion) (mouse, UniProt Q9EP73 19-290); assay: FACS
Chain of PD-L1 mutant Y56A (mouse PD-L1-mCherry fusion) (Q9EP73 19-290 Y56A): as the sequence (Q9EP73 19-290 K124A) above, with Y38A, A106K counted along it

Chain of PD-L1 mutant D122A (mouse PD-L1-mCherry fusion) (Q9EP73 19-290 D122A): as the sequence (Q9EP73 19-290 K124A) above, with D104A, A106K counted along it
Chain of PD-L1 mutant Y123R (mouse PD-L1-mCherry fusion) (Q9EP73 19-290 Y123R): as the sequence (Q9EP73 19-290 K124A) above, with Y105R, A106K counted along it

B2: B7-1 (Fc fusion)
chain: DVDEQLSKSVKDKVLLPCRYNSPHEDESEDRIYWQKHDKVVLSVIAGKLKVWPEYKNRTLYDNTTYSLIILGLVLSDRGTYSCVVQKKERGTYEVKHLALVKLSIKADFSTPNITESGNPSADTKRITCFASGGFPKPRFSWLENGRELPGINTTISQDPESELYTISSQLDFNTTRNHTIKCLIKYGDAHVSEDFTWEKPPEDPPDSK
modifications: C-terminal mIgG2a Fc-10×His (dimerising carrier), not in the letters
EC50 [6]: 18.8 nM

B4: PD-1 (Fc fusion)
chain (part 1 of 2): LEVPNGPWRSLTFYPAWLTVSEGANATFTCSLSNWSEDLMLNWNRLSPSNQTEKQAAFCNGLSQPVQDARFQIIQLPNRHDFHMNILDTRRNDSGIYLCGAISLHPKAKIEESPGAELVVTERILETSTRYPSPSPKPEGRFQ
chain (part 2 of 2): HHHHHHHHHH
EC50 [6]: 2.6 nM

Continued, values first:

EC50 [1]: 7.7 nM
EC50 [2]: 68.2 nM
EC50 [3]: 54.9 nM
EC50 [4]: 39.2 nM
EC50 [5]: 20.2 nM
B1: wild-type mB7-1 Fc (residues D37-K245, mIgG2a-10×His) (Fc fusion)
chain: B2 chain
modifications: C-terminal mIgG2a Fc-10×His (dimerising carrier), not in the letters

EC50 [7]: 2 nM
EC50 [3]: 42.9 nM
EC50 [8]: 2.8 nM
EC50 [9]: 1.8 nM
EC50 [5]: 38.8 nM
EC50 [10]: 1.8 nM
EC50 [11]: 1.9 nM
B3: wild-type mPD-1 Fc (residues L25-Q167, mIgG2a-10×His) (Fc fusion)
chain (part 1 of 2): B4 chain (part 1 of 2)
chain (part 2 of 2): HHHHHHHHHH
